This note sets out measurements from paper PMC10282093, “Structural basis of α1A-adrenergic receptor activation and recognition by an extracellular nanobody” (Nature Communications, 2023).

“And” between values parts separate entries of the source, which are not always exact repeats. Equal values may be shown once.

In experiment [1] the target is T1, α1AAR-kOR (Homo sapiens, UniProt P35348, DEL205-275/INS204TLMILRLKSVRLLSGSREKDRNLRRITRLVL/M115W/N13Q/N22Q/N7Q/S113R).
T1 construct: C-terminus truncated human α1AAR (residues 1–370, full length: 466); hemagglutinin signal peptide (N); FLAG (N); 8×His (C); made in house; host or cells: Sf9 insect cells (membranes)
In words: [3H]prazosin radioligand binding, Sf9 membrane. The settings on record: for [3H]prazosin binding: listed as Tam.

Experiment [2] concerns the target T2, C-terminus truncated human α1AAR (residues 1-370; N7Q, N13Q, N22Q) (Homo sapiens, UniProt P35348, N7Q | N13Q | N22Q).
T2 construct: α1A-adrenergic receptor, human, residues 1-370 (full length: 466); also called α1A-adrenergic receptor; source: Sf9 insect cells (baculovirus); not shown: FLAG, N-terminal, kept
In words: radioligand binding; [3H]prazosin competition binding with Nb29 as competitor, α1AAR in Sf9 membranes; 20 mM Tris-HCl pH 7.5, 100 mM NaCl; 1 h at room temperature. The settings on record: one partner purified.

In experiment [3] the target is T2, C-terminus truncated human α1AAR …. Nature of the experiment: radioligand binding; [3H]prazosin competition binding with Nb29 as competitor, purified α1AAR bound to M1-Flag affinity resin; 20 mM HEPES pH 7.5, 100 mM NaCl, 0.01% MNG, 0.001% CHS, 2 mM CaCl2; 1 h at room temperature. The settings on record: both partners purified.
The target in experiment [4] is T3, α1AAR (Homo sapiens, UniProt P35348, N13Q/N22Q/N7Q).
T3 construct: C-terminus truncated human α1AAR (residues 1–370, full length: 466); hemagglutinin signal peptide (N); 8×His (C); made in house; host or cells: Sf9 insect cells (baculovirus)
T3 sequence (P35348 1-370 N7Q/N13Q/N22Q): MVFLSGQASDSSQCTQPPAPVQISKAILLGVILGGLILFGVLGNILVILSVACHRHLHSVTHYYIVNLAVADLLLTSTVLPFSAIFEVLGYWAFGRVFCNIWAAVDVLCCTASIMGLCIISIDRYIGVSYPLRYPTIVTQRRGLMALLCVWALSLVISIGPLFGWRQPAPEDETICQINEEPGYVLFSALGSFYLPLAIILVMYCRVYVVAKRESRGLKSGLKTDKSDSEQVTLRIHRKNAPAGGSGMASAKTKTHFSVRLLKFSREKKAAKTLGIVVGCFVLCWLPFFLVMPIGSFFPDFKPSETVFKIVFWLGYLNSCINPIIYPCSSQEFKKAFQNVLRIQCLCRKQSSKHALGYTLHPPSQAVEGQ
Nature of the experiment: On-yeast titration of Nb29 for α1AAR, flow cytometry. It is filed as binding. The method, then:
Yeast cells were analyzed by Accuri C6 and the ratio of double-positive yeast cells among anti-HA positive cells was calculated.

The mark [5] stands for this setting: 1 h, read-out: [3H]prazosin binding.

T1 sequence (P35348 with tags, fused parts or gaps with the stated changes limits assumed): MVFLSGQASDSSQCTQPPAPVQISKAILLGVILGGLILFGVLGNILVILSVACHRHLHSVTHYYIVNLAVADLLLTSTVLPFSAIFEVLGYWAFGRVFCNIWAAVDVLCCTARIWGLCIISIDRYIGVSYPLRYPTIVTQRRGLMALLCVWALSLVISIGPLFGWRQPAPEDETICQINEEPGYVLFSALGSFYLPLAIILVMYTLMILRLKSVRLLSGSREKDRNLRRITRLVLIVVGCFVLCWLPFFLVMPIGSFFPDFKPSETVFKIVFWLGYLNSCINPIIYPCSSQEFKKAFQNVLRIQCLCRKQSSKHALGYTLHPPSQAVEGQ

Take `Cc1cc(C(C)(C)C)c(O)c(C)c1CC1=NCCN1` [Oxymetazoline, oxymetazoline]: in experiment [1] (setting [5]), the remaining activity at 0.001 µM is 89.3%, the remaining activity at 0.01 µM came to 83.5% and the remaining activity at 1 µM was determined as 13.3%.

For the molecule `CCOc1ccccc1OCCN[C@H](C)Cc1ccc(OC)c(S(N)(=O)=O)c1` [Tamsulosin, tamsulosin], the “[3H]prazosin binding” value in experiment [1] (Tam Log[M] -4, + 5 μM Nb6) is 0.3% and 1.4% and 0.5%; in experiment [1] (Tam Log[M] -4), 1.611% and 3.516% and 2.93%; in experiment [1] (Tam Log[M] -5, + 5 μM Nb6), 2.5% and 2.1% and 1.4%; in experiment [1] (Tam Log[M] -5), 3.223% and 3.809% and 3.369%; in experiment [1] (Tam Log[M] -6, + 5 μM Nb6), 3.3% and 4.3% and 2.7%; in experiment [1] (Tam Log[M] -6) it was 4.541% and 3.809% and 4.395%. Moreover, the “[3H]prazosin binding” value in experiment [1] (Tam Log[M] -7, + 5 μM Nb6) is 48.154% and 49.4541% and 47.454%; in experiment [1] (Tam Log[M] -7), 39.4775% and 27.2705% and 36.2061%; in experiment [1] (Tam Log[M] -8, + 5 μM Nb6), 86.9072% and 94.5245% and 104.442%; in experiment [1] (Tam Log[M] -8), 82.3975% and 81.5186% and 80.0537%; in experiment [1] (Tam Log[M] -9, + 5 μM Nb6), 108.742% and 93.5245% and 98.1248%; in experiment [1] (Tam Log[M] -9), 91.626% and 91.1865%. Moreover, the “[3H]prazosin binding” value in experiment [1] (Tam Log[M] -10, + 5 μM Nb6) was 97.6581% and 106.126% and 95.8247%; in experiment [1] (Tam Log[M] -10), 84.8877% and 109.009% and 95.459%; in experiment [1] (Tam Log[M] -11, + 5 μM Nb6) it was 98.7416% and 100.042% and 78.5899%; in experiment [1] (Tam Log[M] -11), 106.152% and 96.4844% and 97.3633%.

B1: Nb6: nanobody that engages the ICL3 of the inactive-state κ-opioid receptor (antibody, V domains shown)
VH: QVQLQESGGGLVQAGESLRLSCAASGTIFRLYDMGWYRRVSGNQRELVASITSGGSTKYGDSVKGRFTISRDNAKNTVYLQMSSLKPEDTAVYYCNAEYRTGIWEELLDGWGQGTQVTVSS
Take B1: in experiment [1], the “effect on [3H]prazosin binding” value is recorded as “enhancement”. Further, the “Normalized [3H]prazosin-binding” value in experiment [1] (with 5 μM Nb6) is 182.818% and 184.467% and 175.395%.

B2: Nb29 (purified nanobody) (VHH)
VHH: QVQLQESGGGLVQAGGSLRLSCAASGNISAHWKMGWYRQAPGKEREFVAGIGYANTNYADSVKGRFTISRDNAKNTVYLQMNSLKPEDTAVYYCAAYSYYRDHSYWGQGTQVTVSS
notes: source: E. coli BL21(DE3), periplasmic (pET26b), purified (Ni-NTA, size-exclusion chromatography)
With B2, the Ki is 41 µM in experiment [2] and 6.4 µM in experiment [3].

B3: Nb29: synthetic nanobody (single domain antibody) that binds the extracellular vestibule of α1AAR, preferentially oxymetazoline-bound (antibody, V domains shown)
VH: B2 VHH
Take B3: the “Nb29-expressing yeast cells bound to α1AAR” value in experiment [4] (500 μM Noradrenaline, α1AAR 4 nM) was 4.281% and 5.07% and 1.08%; in experiment [4] (500 μM Noradrenaline, α1AAR 16 nM), 4.4164% and 6.158% and 1.447%; in experiment [4] (500 μM Noradrenaline, α1AAR 64 nM), 6.534% and 6.061% and 1.603%; in experiment [4] (500 μM Oxymetazoline, α1AAR 64 nM), 56.0554% and 29.8113% and 58.3201%; in experiment [4] (500 μM Oxymetazoline, α1AAR 256 nM), 56.0831% and 53.0792% and 88.1579%; in experiment [4] (500 μM Phentolamine, α1AAR 4 nM), 4.281% and 2.134% and 0.9772%. In addition, the “Nb29-expressing yeast cells bound to α1AAR” value was 4.4164% and 5.525% and 0.626% in experiment [4] (500 μM Phentolamine, α1AAR 16 nM); 6.534% and 6.745% and 1.138% in experiment [4] (500 μM Phentolamine, α1AAR 64 nM); 1.7094% and 4.412% and 4.11% in experiment [4] (500 μM Tam, α1AAR 4 nM); 2.954% and 4.451% and 4.373% in experiment [4] (500 μM Tam, α1AAR 16 nM); 5.7377% and 5.491% and 6.25% in experiment [4] (500 μM Tam, α1AAR 64 nM); 3.361% and 11.8841% and 12.7329% in experiment [4] (500 μM Tam, α1AAR 256 nM). Besides, the “Nb29-expressing yeast cells bound to α1AAR” value in experiment [4] (Apo, α1AAR 4 nM) was 4.848% and 6.304% and 2.077%; in experiment [4] (Apo, α1AAR 16 nM), 4.142% and 4.886% and 1.136%. The Bmax turned out to be 35.8 ± 25.7% in experiment [4] (Apo α1AAR); 10.9 ± 3.4% in experiment [4] (α1AAR + 500 μM noradrenaline); 75.5 ± 13.8% in experiment [4] (α1AAR + 500 μM oxymetazoline); 24.8 ± 4.0% in experiment [4] (α1AAR + 500 μM phentolamine); 8.90 ± 1.8% in experiment [4] (α1AAR + 500 μM tamsulosin). The molecule further returned a Kd in experiment [4] (Apo α1AAR) of 209 ± 288 nM.
